{
  "source": "patent CN1618813A",
  "about": "(SHANGHAI HUMAN GENOME RES CT, dated 2005)",
  "binders": {"B1": {"name": "抗TRIP15噬菌体抗体 (anti-TRIP15 phage-displayed human single-chain antibody, positive clone) (scFv, V domains shown)", "VH": "EVQLLESGGGLVQPGGSLRLSCAASGFTFSSYAMSWVRQAPGKGLEWVSSISNDGLKTLYADSVKGRFTISRDNSKNTLYLQMNSLRAEDTAVYYCAKNTGSFDYWGQGTLVTV", "VL": "DIQMTQSPSSLSASVGDRVTITCRASQSISSYLNWYQQKPGKAPKLLIYRASNLQSGVPSRFSGSGSGTDFTLTISSLQPEDFATYYCQQVLRRPATFGQGTKVEIKR", "notes": "also called 阳性克隆的噬菌体抗体; 针对TRIP15抗原的scFv"}},
  "biological_target": "T1, 甲状腺素受体相互作用蛋白15 (thyroid receptor interacting protein 15, TRIP15) (human, UniProt P61201 1-443)",
  "T1 construct": "Purified prokaryotic expression product of the TRIP15 gene; also called TRIP15蛋白; 人TRIP15蛋白",
  "T1 sequence (P61201 whole entry)": "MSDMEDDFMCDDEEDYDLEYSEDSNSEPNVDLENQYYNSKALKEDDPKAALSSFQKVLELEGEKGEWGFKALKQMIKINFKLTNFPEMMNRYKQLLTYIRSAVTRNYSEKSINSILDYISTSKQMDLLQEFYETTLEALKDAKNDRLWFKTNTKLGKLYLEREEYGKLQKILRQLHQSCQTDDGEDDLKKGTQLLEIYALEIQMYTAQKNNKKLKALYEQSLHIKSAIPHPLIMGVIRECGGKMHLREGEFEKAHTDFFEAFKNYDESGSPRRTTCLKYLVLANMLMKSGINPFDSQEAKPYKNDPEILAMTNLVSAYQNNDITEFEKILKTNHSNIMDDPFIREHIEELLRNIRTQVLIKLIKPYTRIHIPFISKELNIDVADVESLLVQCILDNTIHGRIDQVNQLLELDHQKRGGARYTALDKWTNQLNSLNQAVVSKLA",
  "experiment": "indirect ELISA, phage antibody on purified TRIP15 antigen",
  "data": [
    {"binder": "B1", "values": [
      {"measurement": "binding result", "value": "binds"}
    ]}
  ]
}
